In patent US20110104667 (INFOSCITEX CORPORATION, published 2011):

Target: recombinant anthrax protective antigen (rPA) (UniProt P13423 P13423:30-764)
Experiment: ELONA
Conditions: tags: MW about 83 kDa; label: 5' biotin

Sequence of recombinant anthrax protective antigen (rPA) (P13423 30-764, one chain of several): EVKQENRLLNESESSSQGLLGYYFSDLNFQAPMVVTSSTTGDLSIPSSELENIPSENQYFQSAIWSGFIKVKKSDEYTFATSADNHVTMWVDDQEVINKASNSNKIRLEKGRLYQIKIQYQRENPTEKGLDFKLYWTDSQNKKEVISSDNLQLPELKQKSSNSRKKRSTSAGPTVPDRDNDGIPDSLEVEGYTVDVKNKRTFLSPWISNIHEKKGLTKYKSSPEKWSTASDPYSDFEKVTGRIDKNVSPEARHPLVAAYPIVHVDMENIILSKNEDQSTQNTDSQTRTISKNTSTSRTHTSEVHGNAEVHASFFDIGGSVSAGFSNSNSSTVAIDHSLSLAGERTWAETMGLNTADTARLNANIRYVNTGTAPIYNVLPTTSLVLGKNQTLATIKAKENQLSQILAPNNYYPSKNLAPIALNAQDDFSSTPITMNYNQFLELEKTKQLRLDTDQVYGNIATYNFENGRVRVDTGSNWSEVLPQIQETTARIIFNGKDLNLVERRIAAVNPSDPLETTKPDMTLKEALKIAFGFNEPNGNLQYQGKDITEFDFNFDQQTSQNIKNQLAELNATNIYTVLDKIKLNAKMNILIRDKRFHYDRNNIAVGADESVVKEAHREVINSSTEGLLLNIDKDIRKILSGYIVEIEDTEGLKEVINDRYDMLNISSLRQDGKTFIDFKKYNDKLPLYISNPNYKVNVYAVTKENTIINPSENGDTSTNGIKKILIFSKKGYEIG

B1: rPA DNA aptamer, biotinylated (ssDNA)
DNA: TACGACTCACTATAGGGATCCCGAGCTGCAATGGAGTGATTACTAGGGATGTGCGAGGCGCCGAATTCCCTTTAGTGAGGGTT
Q: Does B1 bind?
A: binds
